Measured values reported in patent publication US20200102374A1 (VIB VZW, published 2020).

B1: VHH-DS-Cav1-L66 (VHH)
VHH: QVQLQESGGGLVQPGGSLRLSCAASGFTLDYYYIGWFRQAPGKEREGVSCISSSHGSTYYADSVKGRFTISRDNAKNTVYLQMNSLKPEDTAVYYCATVAVAHFRGCGVDGMDYWGKGTQVTVSS
B2: VHH-DS-Cav1-4 (VHH)
VHH: QVQLQESGGGLVQPGGSLRLSCAASGFTLDYYYIGWFRQAPGKEREAVSCISGSSGSTYYPDSVKGRFTISRDNAKNTVYLQMNSLKPEDTAVYYCATIRSSSWGGCVHYGMDYWGKGTQVTVSS

Key:
[1] = biological target: F protein of RSV A2 virus (respiratory syncytial virus A2, UniProt P03420 26-574); experiment: cell-based or functional assay
Sequence of F protein of RSV A2 virus (P03420 26-574): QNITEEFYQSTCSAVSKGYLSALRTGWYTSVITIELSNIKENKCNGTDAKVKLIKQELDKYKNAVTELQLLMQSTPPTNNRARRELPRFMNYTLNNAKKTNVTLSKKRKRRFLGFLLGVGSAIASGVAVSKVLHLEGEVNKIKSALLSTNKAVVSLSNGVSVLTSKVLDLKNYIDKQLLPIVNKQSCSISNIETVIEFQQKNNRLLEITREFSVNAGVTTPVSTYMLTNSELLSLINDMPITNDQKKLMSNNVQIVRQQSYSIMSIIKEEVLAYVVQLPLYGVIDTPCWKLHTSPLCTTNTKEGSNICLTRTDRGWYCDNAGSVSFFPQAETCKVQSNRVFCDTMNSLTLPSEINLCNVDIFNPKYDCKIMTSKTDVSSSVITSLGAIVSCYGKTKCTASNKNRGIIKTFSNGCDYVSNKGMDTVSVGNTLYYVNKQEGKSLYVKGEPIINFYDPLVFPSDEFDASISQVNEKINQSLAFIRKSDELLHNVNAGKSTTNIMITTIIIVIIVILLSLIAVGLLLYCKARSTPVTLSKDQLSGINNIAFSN

[2] = biological target: F protein of RSV B49 virus (respiratory syncytial virus B49); experiment: cell-based or functional assay

Binder | IC50 of in vitro neutralization of RSV A2 (plaque reduction on Vero cells) [1] [nM] | IC50 of neutralization of RSV B49 (plaque reduction on Vero cells) [2] [nM]
B1 | 0.032 | 0.032
B2 | 0.021 | 0.015
